In a protein production outcome set (Wang et al. 2014):

Assay: label from the status in PepcDB records

| Sequence | protein production |
| --- | --- |
| MDTSDLFASCRKGDVGRVRYLLEQRDVEVNVRDKWDSTPLYYACLCGHEELVLYLLANGARCEANTFDGERCLYGALSDPIRRALRDYKQVTASCRRRDYYDDFLQRLLEQGIHSDVVFVVHGKPFRVHRCVLGARSAYFANMLDTKWKGKSVVVLRHPLINPVAFGALLQYLYTGRLDIGVEHVSDCERLAKQCQLWDLLSDLEAKCEKVSEFVASKPGTCVKVLTIEPPPADPRLREDMALLADCALPPELRGDLWELPFPCPDGFNSCPDICFRVAGCSFLCHKAFFCGRSDYFRALLDDHFRESEEPATSGGPPAVTLHGISPDVFTHVLYYMYSDHTELSPEAAYDVLSVADMYLLPGLKRLCGRSLAQMLDEDTVVGVWRVAKLFRLARLEDQCTEYMAKVIEKLVEREDFVEAVKEEAAAVAARQETDSIPLVDDIRFHVASTVQTYSAIEEAQQRLRALEDLLVSIGLDC | failed |
| MDVAGDEAGGTAGARDRVADRAAGRAVALGAIALLVAGALEAWAVLGGLEPARFWDTPSYLHDAGHLARGELPPLGLRMPGYPAFVALVGGRGPDLGRVAGAQAALWVASVVLAYALVRRLTGSLAAALAAGLAALSFVDLLFMAVTIYSETLCLALVCGAALATVAAFGGRTRAAVAGAGLLWAAAALVRPIFLASAGVYLLAALLLAARRALARRDVALAWAAVAAVVLAMASLNLARAGRFEFSPGAGLSLLNHVGHPAVYRHLPPDQAPIREVYERLAAEQGREWIGWWRAVGPLAQVVAPELAEAAGRLEVTAAEPVAERVALRALAAVPGGWLRVWADAAEQLLGRFALQLGWSARPDGPPQWPPGAWQHRAARDAEAAWRVGMPWLSAAALLLPPLALWLRARRRRRGDDVPGPAGAGAALATLWAIAGVNAGLSPALEPWAGQMRYRFPIQHLLLGLAIGAAVLAARALRPARGLAGAGSPAPGAGAARRT | failed |
| MDVFATGAGQVDPAKVLSPGLVYDATTEDYLKFIQGTGMDLGMEGLGTTQARDMNVPSFALGNLAGKIEVTRTLTALTPGTYRASVNVPGVNVKVTPSVLTFGAPGEKKTFKVQFENNNAALGKFAMGSLNWQGANKTVTSPIAVRPLEHHHHHH | failed |
| MDVGMPFSGPVSFPLLVIEEELPFRIHNICSETGKFDVVLDSITNMPKYGLKIFAGVRIDMYSILGDESSGRIYTLRKGTLADFNARILAYYDKAQVINADGDTCIKMANEGYSALVGNEISIGKSFRNRMKELGLDLPSCAMASTRRIDEVIEAYEQGIDFIKNNHERAAEIISKKSGYYSEEVMKKIIGIYGHEVTKKRAELVGSRELYSRVVPELNDIEIIG | not failed |
| MDVLSPGQGNNTTSPPAPFETGGNTTGISDVTVSYQVITSLLLGTLIFCAVLGNACVVAAIALERSLQNVANYLIGSLAVTDLMVSVLVLPMAALYQVLNKWTLGQVTCDLFIALDVLCCTSSILHLCAIALDRYWAITDPIDYVNKRTPRRAAALISLTWLIGFLISIPPMLGWRTPEDRSDPDACTISKDHGYTIYSTFGAFYIPLLLMLVLYGRIFRAARFRIRKTVKKVEKTGADTRHGASPAPQPKKSVNGESGSRNWRLGVESKAGGALCANGAVRQGDDGAALEVIEVHRVGNSKEHLPLPSEAGPTPCAPASFERKNERNAEAKRKMALARERKTVKTLGIIMGTFILCWLPFFIVALVLPFCESSCHMPTLLGAIINWLGYSNSLLNPVIYAYFNKDFQNAFKKIIKCKFCRQ | failed |
| MDVPSPCNVLMLYPLFTAESFWSFGESCKLMGVKRPAAPLGLITVAAMLPADWTVRLIDCNTSPLGDEDLAWADVVFTGGMLPQQADTLRLIELCRAAGKPVVVGGPDPTSSPHIYERADFRVLGEAESVIDEFIAAWEGGARSGVFTAPKFQADVTRTPVPRFDLLKFEDYLYIGVQYSRGCPFTCEFCDIIELYGRVPRTKTAEQMFVELETLYRMGYRGHLDFVDDNFIGNKKSLRLFLPQLAEWQRAHGYPFEFSTEASINLADDPELLEQMGAANFFGIFVGIESPDPATLVAMRKKQNTRRNIAESIHKIYAAGILVTAGFIVGFDNEKVSMAEAMIEFIEEAAIPVSMVGLLYALPNTQLTRRLEREGRLHPGHDLAPTIGADQCTDGINFDPVRPLRDILMDYKRVLERIYSPAAYAGRIDRLMTLLDRSRQRHALAEGDIRAKLGAMETVHRVVTAIPEARGPLWQTFMNCAKRDTSSARIAVQMIAAYAHLGPFSRKVIDAIDARLAALDDETVIPAATIDATAARHLA | failed |
| MDYATNCASLPKWHKVPLLSVCIPAYNRPQGLVAAVRSVVAALPREYHDQVEIVITDDSATRTAVDDLLAPWSGHWHYQHNAQRLGMVANWNTSLAKACGEFILLLHDDDYLLPQGITTILATLSQYGSQFDVFLFGVHLVDSHQRCLRRQIPRRQEWLSPAQALRQLLRHSSLVRFPALIWRRSLLDAVGYFDPTYGEATDLYQWLRFFAQKGVYTVPCATAAYRIHDQALTMGMFQAQTLATLGRIFAAAADLSLLSPAELRHCQCDFFHQFILAGTWRFLRRRQWQRAQAVYQLFDLPEVIALGRSRRWQGLRWLLGSWLWLLQQLSS | failed |
| MDYLNYEEIQSLKNSLLHNIKHTYISRYMILTALYTGMRPGEIAVLTWSDIDFKNQTININKSYNHDKGRVDNYDSSEIDKSTKNTNSVRIIKVDKKFLDILSQLKQNDHEKIFIGKDGTIPTSNAVNKVWRKQLEKLNIDKPSFHFHSVRHTHVALLPFKGVPLYAISKRLGHANMSTTAKKYAYMLDELKQQVRLEHHHHHH | not failed |
| MDYLPVEVIGNILSRLGGARDVVIASATCRKWREACRKHLQTLSFNSADWPFYRDLTTNRLEILITQTIFQTMGLQGLSIMMDDANKFSAATVIAWLMYTRDTLRRLSYNVRTTPNVNILEICGRQKLEALVLAHNSITGVEPSFQRFPCLKSLSLSYVSISALDLNLLLSACPMIESLELVSLEIAMSDAQVTIELSSPTLKSVYFDGISLDKFILEADSIEFLHMKDCVLELFELIGNGTLKHFKLDDVSVIHLDIMETSESLEVVDVNHFTMVWPKFYQMISRSQKLKKLRLWDVVFDDDDEIIDVESIAAGFSHLTHLSLSYDLKDGAAHYSLQGTTQLENVTVLELGWTVINDVFSIWVEELLRRCPNLKKLIIYGVVSETKTQGDCQILATFTWSIVQLMRKYIHVEVQFEYE | failed |
| MDYRQLHRWDLPPEEAIKVQNELRKKIKLTPYEGEPEYVAGVDLSFPGKEEGLAVIVVLEYPSFKILEVVSERGEITFPYIPGLLAFREGPLFLKAWEKLRTKPDVVVFDGQGLAHPRKLGIASHMGLFIEIPTIGVAKSRLYGTFKMPEDKRCSWSYLYDGEEIIGCVIRTKEGSAPIFVSPGHLMDVESSKRLIKAFTLPGRRIPEPTRLAHIYTQRLKKGLFLEHHHHHH | not failed |
| MEAATWILFTLGVSLILAKIGDSLVERFELPGVLGELLVGIILGNLVYFGVISSEYLPITAGSSEVIDFMAKLGVVFLLFLGALDTDLNLIKRTGITAVVSTILGVFVPLILGYLGLRWLGYDNKEAFAGGVLLTATSIGLTVRVMMDLGVLRSEVGAASLSASVIDDFLGIALIIFAVGSGSLLGLGIKIIIFFLITGVVGWYFIDHYLKFAERLGVEKGVLGFVLGMMLIFSALAEGWFAAAIEGAFMMGLILSKTAEGKRLLEEVRSIGYGFLIPIFFVHTGAMLNFKVFENLEAIKLAVVLSVIAIVGKVAGRGFGAWITAWGRGKDFLFTRENFRMSFQMGIGSIPRTEVALVALMVAIHGGAISPDDAPKFIAATLIFITISVLITPPLLKWAFREEILAQKKLLLENRKEKIESKKRGTR | failed |
| MEAFFRHAERVAHPSPRLRLLLALGHRMRGELDRGLAVLEGFPEEDPALLAEALLAQGTLLGLKGAHGEAEDVFSQGVALGETPLRARFLTSRGAARIRLGRYREAAEDLEEALFLSRKERLKEVEALALHNLAIARHHLGELAEAVRLYREVLPLKTAPLSRAYTLLSLGEALSYLGRFLEAKRTLFRAREEAWASGDYRAMGYTLLNLADLYREAGLPEAEGLYREAEAHLEKAHDPYALGLVHLGLARLGAKGSLERARALFQEGGSPGELAEWHLVAGRLCGRPEHFEEALRLAEKAGAGRLLLLARLELFLKAPSPGEAKALAREVLKAGFQDFWLWERAFPLPLLAFEAGEEGLLEALLAGVGWLRARSLKALEARTEEGPLPLPSRKELLLLLLLWRRKALEAEALARLLFPGSKNPKKRLQVAVHHLREALDPDLVRLEGEAYRAYLPPGVWWDARVKEGLLRWARRLSLPQAQARVEEALPGRFSPQAYLTDP | failed |
